Source: the supplement of paper PMC10126150
± gives the standard deviation of the averaged measurements.

Test system: ATP
Assay: switch fluorescence ratio, 500 uM ATP over buffer (Cy3 cluster intensity, sum of 5 cycles each) (fold (ratio)); higher = stronger signal-on switching upon ATP binding; sequences stand for … in TCGTCGGCAGCGTCAGATGTGTATAAGAGACAGTTTTTTTTTTTTTTTTTTTTTTTTT…TC
Conditions: aptamer strand: ATP DNA aptamer (quencher-CACCTGGGGGAGTATTGCGGAGGAAGG + anchor), 100 nM annealed; ATP concentration: 500 uM
Method in brief: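 Cy3-labelled switching-strand clusters on a modified Illumina MiSeq flow-cell were annealed to 100 nM quencher-labelled ATP aptamer, imaged in selection buffer, then imaged after 15 min with 500 uM ATP at 22 °C. Five buffer/ATP cycles ran, with NaOH stripping and re-annealing between them. The fluorescence ratio is summed target-cycle over summed buffer-cycle Cy3 intensity per cluster, averaged per switch-domain sequence. Clusters outside 100-1000 RFU were excluded.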
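Further: ATP exposure 15 min at 22 °C before imaging.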

Row | Sequence | switch fluorescence ratio
1 | TTTTTAAGAG | 1 ± 0.014
2 | TTTTTAAGGA | 1.04 ± 0.048
3 | TTTTTAAGGT | 1 ± 0.015
4 | TTTTTAATGT | 0.998 ± 0.062
5 | TTTTTACAGA | 1.04 ± 0.025
6 | TTTTTACCTT | 1.07 ± 0.046
7 | TTTTTACGAA | 1.01 ± 0.022
8 | TTTTTACGGC | 1.02 ± 0.016
9 | TTTTTACTGT | 1.01 ± 0.017
10 | TTTTTAGAAG | 0.985 ± 0.01
11 | TTTTTAGGAA | 1.04 ± 0.055
12 | TTTTTAGGAT | 1.11 ± 0.17
13 | TTTTTAGTAT | 1.01 ± 0.035
14 | TTTTTATCAT | 0.998 ± 0.037
15 | TTTTTATCTG | 0.9654 ± 0.002
16 | TTTTTATGAC | 1.01 ± 0.029
17 | TTTTTATGAT | 0.983 ± 0.022
18 | TTTTTATGC | 0.975 ± 0.071
19 | TTTTTATGCC | 0.963 ± 0.05
20 | TTTTTATGCG | 0.999 ± 0.06
21 | TTTTTATTAG | 0.983 ± 0.027
22 | TTTTTATTGC | 1 ± 0.035
23 | TTTTTCAACC | 1.02 ± 0.017
24 | TTTTTCAAGT | 1.1 ± 0.29
25 | TTTTTCACGC | 1.04 ± 0.019
26 | TTTTTCAGTG | 0.991 ± 0.039
27 | TTTTTCCAT | 1 ± 0.02

Row | Sequence | switch fluorescence ratio
28 | TTTTTCCATT | 1.01 ± 0.027
29 | TTTTTCCTGT | 1.01 ± 0.011
30 | TTTTTCCTTG | 1.04 ± 0.018
31 | TTTTTCCTTT | 1.02 ± 0.033
32 | TTTTTCGCTT | 1.06 ± 0.077
33 | TTTTTCGTCA | 1.037 ± 0.0074
34 | TTTTTCGTGT | 0.975 ± 0.038
35 | TTTTTCTATT | 0.988 ± 0.019
36 | TTTTTCTTCG | 1.21 ± 0.099
37 | TTTTTCTTTG | 1.04 ± 0.065
38 | TTTTTGACAC | 1.26 ± 0.38
39 | TTTTTGAGAG | 0.998 ± 0.032
40 | TTTTTGAGC | 1.011 ± 0.0086
41 | TTTTTGAGGA | 0.995 ± 0.017
42 | TTTTTGCCTA | 1.015 ± 0.0089
43 | TTTTTGCGCT | 1.04 ± 0.047
44 | TTTTTGCTAG | 0.986 ± 0.013
45 | TTTTTGCTCA | 0.9912 ± 0.0055
46 | TTTTTGCTGT | 2.91 ± 3.3
47 | TTTTTGCTTT | 1.06 ± 0.099
48 | TTTTTGGCAT | 1.01 ± 0.033
49 | TTTTTGGCGC | 1.01 ± 0.032
50 | TTTTTGGGTT | 1.02 ± 0.048
51 | TTTTTGGTAT | 1.01 ± 0.047
52 | TTTTTGGTTA | 1 ± 0.016
53 | TTTTTGTAAT | 1.04 ± 0.055
54 | TTTTTGTATA | 0.979 ± 0.027

Row | Sequence | switch fluorescence ratio
55 | TTTTTGTATT | 1.03 ± 0.02
56 | TTTTTGTGA | 0.995 ± 0.026
57 | TTTTTGTTC | 0.99 ± 0.023
58 | TTTTTTACGG | 1.02 ± 0.019
59 | TTTTTTAGGA | 1.01 ± 0.019
60 | TTTTTTAGGG | 0.988 ± 0.029
61 | TTTTTTATAT | 0.987 ± 0.025
62 | TTTTTTATCA | 0.98 ± 0.029
63 | TTTTTTCATG | 0.988 ± 0.033
64 | TTTTTTCGGC | 0.988 ± 0.022
65 | TTTTTTCGTC | 1.02 ± 0.011
66 | TTTTTTGGAT | 1.01 ± 0.022
67 | TTTTTTGGGC | 0.99 ± 0.068
68 | TTTTTTGTCG | 0.993 ± 0.053
69 | TTTTTTGTGA | 1 ± 0.08
70 | TTTTTTGTGG | 0.978 ± 0.031
71 | TTTTTTTAAC | 0.999 ± 0.032
72 | TTTTTTTACC | 1.01 ± 0.021
73 | TTTTTTTACT | 1.02 ± 0.029
74 | TTTTTTTAGA | 0.995 ± 0.022
75 | TTTTTTTAT | 1.014 ± 0.01
76 | TTTTTTTCTC | 0.992 ± 0.056
77 | TTTTTTTTAT | 1 ± 0.024
78 | TTTTTTTTC | 1.045 ± 0.0071
79 | TTTTTTTTCA | 1.01 ± 0.053
